From paper PMC5943514, “Substrate specificity of human MCPIP1 endoribonuclease” (Scientific Reports, 2018) come the findings set out here.

Positions count from the first letter of the chain named. Numbers in names are those of the source. Where “and” joins values, the source holds several entries; their conditions need not be identical. Identical values can stand only once.

The target in series [1] is T1, MCPIP1 D141N (Regnase-1), full length (Homo sapiens, UniProt Q5D1E8 1-599, D141N).
T1 sequence: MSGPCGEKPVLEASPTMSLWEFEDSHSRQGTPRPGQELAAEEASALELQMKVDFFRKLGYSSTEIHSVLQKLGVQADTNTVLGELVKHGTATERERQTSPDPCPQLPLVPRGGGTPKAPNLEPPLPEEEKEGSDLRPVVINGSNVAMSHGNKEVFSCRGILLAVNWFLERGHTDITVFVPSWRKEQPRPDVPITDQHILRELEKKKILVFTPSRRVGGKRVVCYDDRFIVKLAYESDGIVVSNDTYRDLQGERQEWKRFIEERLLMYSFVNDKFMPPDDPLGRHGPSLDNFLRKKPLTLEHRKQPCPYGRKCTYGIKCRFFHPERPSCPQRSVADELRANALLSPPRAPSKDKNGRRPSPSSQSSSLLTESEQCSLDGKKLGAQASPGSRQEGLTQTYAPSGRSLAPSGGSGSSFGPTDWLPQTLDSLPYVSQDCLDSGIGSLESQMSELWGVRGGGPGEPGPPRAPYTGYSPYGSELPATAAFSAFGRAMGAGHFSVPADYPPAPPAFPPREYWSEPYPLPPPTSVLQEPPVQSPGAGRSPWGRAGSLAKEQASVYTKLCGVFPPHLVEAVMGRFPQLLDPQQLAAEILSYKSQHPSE
Description: fluorescence intensity titration; 2.5 mM Mg2+; 25 mM Tris-HCl pH 7.9, 150 mM NaCl, 5% glycerol, 2.5 mM MgCl2, 1 mM DTT, 0.5 mM EDTA, 0.05 mM ZnCl2, 25 C; oligo 2 nM (full length) or 20 nM (PIN, PIN-ZF). The conditions noted are these: protein: recombinant, tags: none stated (purified by ion exchange), chain copies: 2.

The target in series [2] is T2, PIN D141N (Homo sapiens, UniProt Q5D1E8 134-297, D141N).
T2 sequence: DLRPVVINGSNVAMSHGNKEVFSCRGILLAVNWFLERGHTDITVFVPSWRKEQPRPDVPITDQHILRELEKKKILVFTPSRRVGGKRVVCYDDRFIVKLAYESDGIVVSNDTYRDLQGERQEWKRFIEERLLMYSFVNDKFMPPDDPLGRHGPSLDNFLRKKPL
Described as above. As to conditions: protein: recombinant, tags: N-terminal His6, chain copies: 2.

Series [3] deals with T3, PIN-ZF D141N (Homo sapiens, UniProt Q5D1E8 134-327, D141N).
T3 sequence: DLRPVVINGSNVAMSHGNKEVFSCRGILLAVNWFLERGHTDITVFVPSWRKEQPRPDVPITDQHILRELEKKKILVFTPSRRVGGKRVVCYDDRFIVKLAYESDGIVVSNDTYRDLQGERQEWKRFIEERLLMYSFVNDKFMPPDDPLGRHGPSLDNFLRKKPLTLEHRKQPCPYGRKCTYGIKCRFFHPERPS
Described as above. As to conditions: protein: recombinant, tags: N-terminal His6, chain copies: 2.

The target in series [4] is T2, PIN D141N. Put plainly: fluorescence intensity titration; 2.5 mM Mg2+; 20 nM oligo; sequential 2:1 model; 25 mM Tris-HCl pH 7.9, 150 mM NaCl, 5% glycerol, 2.5 mM MgCl2, 1 mM DTT, 0.5 mM EDTA, 0.05 mM ZnCl2, 25 C; oligo 2 nM (full length) or 20 nM (PIN, PIN-ZF). The conditions noted are these: protein: recombinant; tags: N-terminal His6; chain copies: 2; label: 5' 6-FAM; hairpin.

Series [5] deals with T3, PIN-ZF D141N. The description is as above. The conditions noted are these: protein: recombinant; tags: N-terminal His6; chain copies: 2; label: 5' 6-FAM; hairpin.
Series [6] deals with the molecule itself. Description: SEC; analytical Superdex 200 Increase 10/300 GL calibrated with protein standards; 25 mM Tris pH 7.9, 300 mM NaCl, 10% glycerol, 1 mM DTT, 0.5 mM EDTA, also with 1.6 M urea; apparent molecular weight from the calibration curve, multiple Gaussian peak fit. In general terms: In gel filtration, larger molecules generally elute earlier.
Setting [7] is: label: 5' 6-FAM on strand 1, blunt, strands mixed 1:1.2.

UGUUCUCUAUGGAGAACU (structured_RNA) [hIL-6 82-99]: the dissociation constant (Kd) (commonly the concentration at which binding is half-saturated) worked out at 4.1 ± 3.6 nM in series [1] (label: 5' 6-FAM, hairpin); 15.1 ± 4.5 nM with PIN D141N [2] (label: 5' 6-FAM, hairpin); 13.2 ± 6.8 nM with PIN-ZF D141N [3] (label: 5' 6-FAM, hairpin).

For the molecule UGUUGUUCUCUA (ssRNA) [mIL-6 82-93 ssRNA], the dissociation constant Kd in series [1] (label: 5' 6-FAM, unstructured) was 19 ± 11 nM; with PIN D141N [2] (label: 5' 6-FAM, unstructured), 41 ± 12 nM; with PIN-ZF D141N [3] (label: 5' 6-FAM, unstructured), 34 ± 18 nM.

As for UGUUCUCUACGAAGAAC (structured_RNA) [mIL-6 85-101 short stem], the Kd worked out at 9.2 ± 4 nM in series [1] (label: 5' 6-FAM, hairpin); 20.7 ± 7.2 nM with PIN D141N [2] (label: 5' 6-FAM, hairpin); 20 ± 10 nM in the series with PIN-ZF D141N [3] (label: 5' 6-FAM, hairpin).

UGGAAAGUAUCUUUCCU (structured_RNA) [consensus stem-loop]: the dissociation constant Kd came to 3.8 ± 2.8 nM in series [1] (label: 5' 6-FAM, hairpin); 36 ± 17 nM in the series with PIN D141N [2] (label: 5' 6-FAM, hairpin); 9.1 ± 3.2 nM with PIN-ZF D141N [3] (label: 5' 6-FAM, hairpin).

As to UUUUUUUUUUUU (ssRNA) [poly-U 12 nt], the figures for the Kd (in series [1] (label: 5' 6-FAM); with PIN D141N [2] (label: 5' 6-FAM); with PIN-ZF D141N [3] (label: 5' 6-FAM)) were 14.8 ± 7.2 nM, 39 ± 11 nM and 43 ± 23 nM, respectively.

On to ACAGUCAAGACUACGAUCUUGUUGU (structured_RNA) [mIL-6 82-106 RS (reverse stem)], for which the dissociation constant (Kd) in series [1] (label: 5' 6-FAM, hairpin) stood at 9.8 ± 2.3 nM; in the series with PIN D141N [2] (label: 5' 6-FAM, hairpin), 39.3 ± 8.6 nM; with PIN-ZF D141N [3] (label: 5' 6-FAM, hairpin), 15.1 ± 7.3 nM.

For the molecule TGTTGTTCTCTA (ssDNA) [mIL-6 82-93 ssDNA], the dissociation constant Kd stood at 18.3 ± 8.2 nM in series [1] (label: 5' 6-FAM), 21.7 ± 6.6 nM with PIN D141N [2] (label: 5' 6-FAM) and 36 ± 20 nM in the series with PIN-ZF D141N [3] (label: 5' 6-FAM).

Regarding UGUUGUUCUCUACGAAGAACUGACA (structured_RNA) [mIL-6 82-106 5'FAM], the Kd with PIN D141N [4] is 24.1 ± 7.3 nM; with PIN-ZF D141N [5], 6.6 ± 3.1 nM.

For the molecule UGUUGUACACUACGAUGUACUGACA (structured_RNA) [mIL-6 82-106 YR], the Kd in series [1] (label: 5' 6-FAM, hairpin) was 9.5 ± 5.2 nM; with PIN D141N [2] (label: 5' 6-FAM, hairpin), 25.1 ± 7 nM; with PIN-ZF D141N [3] (label: 5' 6-FAM, hairpin), 14.4 ± 9.6 nM.

B1: mIL-6 82-93 dsDNA (dsDNA)
DNA 1: TGTTGTTCTCTA
DNA 2: TAGAGAACAACA
Regarding B1, the Kd is 118 ± 49 nM in series [1] (setting [7]), 56 ± 17 nM in the series with PIN D141N [2] (setting [7]) and 80 ± 30 nM with PIN-ZF D141N [3] (setting [7]).

B2: MCPIP1WT (Monocyte Chemoattractant Protein-1-Induced Protein 1), full-length (enzyme, human, UniProt Q5D1E8 1-599, looked up)
chain: T1 sequence with N141D
notes: human MCPIP1 encoded by ZC3H12A (synthetic gene optimised for E. coli, GenScript), full length, 1-599 aa; printed molecular weight 65.7 kDa; no tag is stated for the full-length protein; In solution a mixture of tetramer, dimer and monomer; also called Regnase-1; Regnase1; source: E. coli BL21-CodonPlus-RIL, purified (TMAE ion exchange in denaturing conditions, dialysis, Superdex 200 gel …)
For B2, in series [6], the stoichiometry N (as a rule, a count of units in the complex or per binding partner) is 4 and 2.

B3: MCPIP1_(D141N), full-length (enzyme, human, UniProt Q5D1E8 1-599, looked up)
chain: T1 sequence
notes: human MCPIP1 encoded by ZC3H12A, full length, 1-599 aa, catalytic site mutant D141N; no tag is stated for the full-length protein; also called MCPIP_(D141N); source: E. coli BL21-CodonPlus-RIL, purified (TMAE ion exchange in denaturing conditions, dialysis, Superdex 200 gel filtration)
B3: the “stoichiometry N” value in series [6] is 2 and 4.

On to UGUUGUU (ssRNA) [mIL-6 82-88 ssRNA], for which the Kd worked out at 14.5 ± 8.1 nM in series [1] (label: 5' 6-FAM, unstructured); 40 ± 12 nM with PIN D141N [2] (label: 5' 6-FAM, unstructured); 32 ± 20 nM with PIN-ZF D141N [3] (label: 5' 6-FAM, unstructured).

Regarding UGUUGUUCUCUACGAAGAACUGACA (structured_RNA) [mIL-6 82-106 3'FAM], the Kd in series [1] (label: 3' 6-FAM, hairpin) is 8.6 ± 2.6 nM; in the series with PIN D141N [2] (label: 3' 6-FAM, hairpin) it was 21.8 ± 6.3 nM; with PIN-ZF D141N [3] (label: 3' 6-FAM, hairpin), 4.8 ± 1.8 nM.
